B1: SWI/SNF complex subunit SMARCC1, residues 620 to 663; numbered along this chain, Q92922 (parent)
chain: GREWTEQETLLLLEALEMYKDDWNKVSEHVGSRTQDECILHFLR
B2: Chromodomain-helicase-DNA-binding protein 5, residues 338 to 390; numbered along this chain, Q8TDI0 (parent)
chain: YETDHQDYCEVCQQGGEIILCDTCPRAYHLVCLDPELEKAPEGKWSCPHCEKE

Variants of: B1
Experiment: abundance fitness (aPCA) (normalised: wild type 0, dead -1); higher = more abundant; growth selection in yeast, the domain comes from the species named
Details: Homo sapiens

Abundance fitness, by site and new letter:
W23: E -0.577, F -0.186, G -0.631, H -0.696, I -0.255, K -0.503, L -0.528, M -0.32, N -0.579, P -0.535, T -0.786, V -0.783
N24: A 0.027, C -0.001, D 0.024, E 0.042, G 0.075, H 0.006, I -0.13, K 0.155, L 0.013, M 0.065, P 0.045, Q 0.173, R -0.032, S 0.119, T -0.029, W -0.168, Y -0.097
K25: A 0.091, C -0.064, D -0.331, E -0.14, G -0.038, H -0.045, I -0.426, L 0.072, M 0.194, N -0.245, P -0.377, Q -0.122, R 0.072, S -0.011, T -0.129, W -0.562, Y -0.473
V26: A 0.006, C 0.543, D -0.768, E -0.406, G -0.686, H -0.683, I -0.051, L -0.513, N -0.533, P -0.919, Q -0.533, R -0.424, T 0.029, W -0.494, Y -0.57
S27: A 0.168, C -0.119, D -0.558, E 0.105, F -0.516, G 0.056, H 0.063, I -0.149, K 0.145, L -0.375, M -0.248, N -0.204, P -0.319, Q 0.246, R 0.01, V 0.039, W -0.56, Y -0.305
E28: A -0.434, C -0.2, D 0.373, G -0.112, H -0.723, I -0.16, K -0.269, L -0.31, M -0.8, N -0.21, Q -0.181, R -0.013, T -0.084, V -0.311, W 0.08, Y -0.404
H29: C -0.382, E -0.551, F -0.201, G -0.803, I -0.469, L -0.264, M -0.209, N -0.173, P -0.796, Q -0.11, R -0.153, S -0.344, T -0.419, V -0.349, Y -0.014
V30: A -0.97, C -0.277, E -1.18, G -0.792, H -1.1, L -0.131, M -0.019, N -0.79, P -0.635, Q -0.764, R -0.847, S -0.757, T -0.419, Y -1.05
G31: A -0.03, C -0.009, D -0.205, E 0.032, F -0.375, I -0.174, K 0.073, L -0.528, M -0.059, N -0.259, P -0.11, Q -0.518, V -0.028, W -0.543, Y -0.487
S32: A -0.015, C -0.124, E 0.105, G 0.115, H -0.138, I -0.135, K 0.05, L -0.224, M -0.083, N 0.025, P -0.419, Q 0.032, R -0.176, T 0.203, V -0.191, W -0.622, Y -0.182
R33: A -0.285, C -0.944, E -0.319, G -0.569, H -0.251, I -0.885, K 0.037, L -0.832, M -0.585, N -0.884, P -0.653, Q -1.01, S -0.678, T -0.464, V -0.387, W -0.404, Y -0.744
T34: D -0.036, E 0.314, F -0.783, G 0.03, I -0.4, K 0.165, L -0.257, N 0.075, P -0.222, Q 0.199, R 0.137, V -0.119, W -0.416, Y -0.715
Q35: A -0.038, C 0.079, D 0.05, E -0.075, G 0.056, H 0.012, I -0.186, K 0.261, L -0.077, M -0.061, N 0.063, P -0.136, S 0.073, T 0.044, V -0.017, W -0.336, Y -0.166
D36: A -0.034, C -0.126, E -0.002, F -0.327, G 0.039, H -0.092, I -0.342, L -0.383, M -0.375, P -0.083, Q 0.041, R -0.017, S 0.021, T -0.042, V -0.354, W -0.299, Y -0.374
E37: A -0.283, D 0.021, F -1.02, G -0.722, H -0.668, K -0.546, L -1.08, M -0.4, N -0.717, P -0.846, Q -0.303, R -0.63, S -0.533, T -0.738, V -1.01
C38: A -0.572, D -0.296, G -0.778, H -0.774, I -0.361, L -0.5, M -1.09, P -0.73, Q -0.514, R -0.367, S -0.624, T -0.4, V -0.348, W -0.79, Y -0.903
I39: A 0.178, E 0.513, F -0.043, G -0.004, H 0.456, K 0.564, L 0.142, M 0.217, N 0.35, P -0.378, Q 0.238, R 0.456, S 0.32, W -0.333, Y 0.117
L40: A 0.28, C 0.108, D 0.319, E 0.122, F -0.074, G 0.049, H 0.201, I -0.138, K 0.171, M 0.057, N 0.135, P -0.299, Q 0.204, R 0.157, S 0.266, T 0.206, W 0.326, Y 0.213
H41: A 0.064, C -0.089, E -0.178, F -0.189, G -0.407, I -0.537, K 0.223, L -0.247, M -0.187, N 0.097, Q -0.21, R -0.019, S -0.357, T -0.161, W -0.142, Y 0.184
F42: A 0.053, C -0.286, E 0.767, G 0.307, K 0.592, L -0.29, M -0.2, N 0.429, P 0.405, R 0.337, S 0.25, T -0.007, V -0.134, W 0.401, Y 0.349
L43: A 0.286, C 0.187, D 0.587, E 0.582, F 0.149, G 0.342, H 0.514, I 0.098, K 0.554, M 0.184, P 0.302, Q 0.645, R 0.507, S 0.338, T 0.584, V 0.209, W 0.076, Y 0.126

Variants of: B2
Experiment: as above
Details: Homo sapiens

Abundance fitness: each site, then its substitutions
Y1: C 0.245

Reference: the Human Domainome abundance scans (Beltran et al. 2025)
